Results published in patent CN115716874A (SHENZHEN ZHUORUN BIOTECHNOLOGY CO LTD, dated 2023).

Target: T1, AFP-L3与凝集素复合物 (Lens culinaris, UniProt P02870 31-210; P02870 218-269, limits assumed)
T1 construct: Non-covalent complex of recombinant AFP (AFP-L3 glycoform) with lentil lectin, mass ratio AFP-L3:lectin 1:5; immobilised on a CM5 chip for SPR; Native LCA consists of processed alpha and beta chains; also called AFP-L3与LCA复合物; AFP-L3-LCA复合物
T1 sequence 1: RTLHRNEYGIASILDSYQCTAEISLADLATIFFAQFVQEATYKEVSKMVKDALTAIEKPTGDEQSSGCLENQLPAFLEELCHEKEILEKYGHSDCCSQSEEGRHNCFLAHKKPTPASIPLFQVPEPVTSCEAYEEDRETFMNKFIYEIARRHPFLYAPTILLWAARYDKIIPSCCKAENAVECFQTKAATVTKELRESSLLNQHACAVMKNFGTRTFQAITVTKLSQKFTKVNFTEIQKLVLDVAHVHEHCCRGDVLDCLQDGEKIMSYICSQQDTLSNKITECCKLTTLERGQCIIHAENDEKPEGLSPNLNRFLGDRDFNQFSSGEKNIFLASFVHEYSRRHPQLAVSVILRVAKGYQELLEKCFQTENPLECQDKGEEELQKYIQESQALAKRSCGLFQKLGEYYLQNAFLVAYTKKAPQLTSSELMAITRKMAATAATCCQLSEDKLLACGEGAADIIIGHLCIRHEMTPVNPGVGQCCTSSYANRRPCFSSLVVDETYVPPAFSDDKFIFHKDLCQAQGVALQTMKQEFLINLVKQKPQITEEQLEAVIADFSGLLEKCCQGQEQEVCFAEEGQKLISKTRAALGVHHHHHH
T1 sequence 2: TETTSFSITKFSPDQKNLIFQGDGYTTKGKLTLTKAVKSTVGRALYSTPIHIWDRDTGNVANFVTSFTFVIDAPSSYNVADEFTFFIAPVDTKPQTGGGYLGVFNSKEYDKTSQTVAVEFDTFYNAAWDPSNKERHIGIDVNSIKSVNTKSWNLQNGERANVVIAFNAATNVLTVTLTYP
T1 sequence 3: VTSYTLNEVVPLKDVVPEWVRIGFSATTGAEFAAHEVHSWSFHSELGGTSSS
Assay: SPR, Biacore T200, complex immobilised on CM5 chip, antibody as analyte

B1: Ab-03 (antibody, mouse IgG1, kappa, V domains shown)
VH: QVQLQQSGPEVVRPGVSVKISCKGSGYTFTDYAMQWVKQSHAKSLEWIGVISTYNGNTNYNQKFKGKATMTVDKSSSTAYMELARLTSEDSAIYYCARSLYYGSSPYAMDYWGQGTSVTVSS
VL: DIVMSQSPSSLAVSAGEKVTMSCKSSQSLLNSRTRKNYLAWYQQKPGQSPKLLIYWASTRESGVPDRFTGSGSGTDFTLTISSVQAEDLAVYYCKQSYNLFTFGSGTKLEIKR
notes: Mouse hybridoma antibody from ascites, Protein A purified; also called 针对AFP-L3与凝集素复合物的单克隆抗体; Ab-03抗体株
Work on B1 yielded a Kd of 2.66 nM.
